Data published in article doi:10.1101/2025.11.23.689978.
“And” between values parts separate entries of the source, which are not always exact repeats. Equal entries are not always repeated.

Key:
[1] = target: AimC_(BMbtp14), purified (phage BMBtp14 (B. cereus group phage)); test: SEC-MALS
[2] = target: AimC_(ϕ106), purified (phage ϕ106 (of Bacillus inaquosorum strain KCTC 13429)); test: SEC-MALS

| stoichiometry N [1] | stoichiometry N [2] | Substance |
| --- | --- | --- |
| 2 and 4 | – | AimC_(BMbtp14), purified (natural protein) |
| – | 2 | AimC_(ϕ106), purified (natural protein) |
